Assay results published in patent publication US20240132857.

Target: Ub^1-74, P0CG48
Sequence (P0CG48 whole entry, looked up, tested part not stated): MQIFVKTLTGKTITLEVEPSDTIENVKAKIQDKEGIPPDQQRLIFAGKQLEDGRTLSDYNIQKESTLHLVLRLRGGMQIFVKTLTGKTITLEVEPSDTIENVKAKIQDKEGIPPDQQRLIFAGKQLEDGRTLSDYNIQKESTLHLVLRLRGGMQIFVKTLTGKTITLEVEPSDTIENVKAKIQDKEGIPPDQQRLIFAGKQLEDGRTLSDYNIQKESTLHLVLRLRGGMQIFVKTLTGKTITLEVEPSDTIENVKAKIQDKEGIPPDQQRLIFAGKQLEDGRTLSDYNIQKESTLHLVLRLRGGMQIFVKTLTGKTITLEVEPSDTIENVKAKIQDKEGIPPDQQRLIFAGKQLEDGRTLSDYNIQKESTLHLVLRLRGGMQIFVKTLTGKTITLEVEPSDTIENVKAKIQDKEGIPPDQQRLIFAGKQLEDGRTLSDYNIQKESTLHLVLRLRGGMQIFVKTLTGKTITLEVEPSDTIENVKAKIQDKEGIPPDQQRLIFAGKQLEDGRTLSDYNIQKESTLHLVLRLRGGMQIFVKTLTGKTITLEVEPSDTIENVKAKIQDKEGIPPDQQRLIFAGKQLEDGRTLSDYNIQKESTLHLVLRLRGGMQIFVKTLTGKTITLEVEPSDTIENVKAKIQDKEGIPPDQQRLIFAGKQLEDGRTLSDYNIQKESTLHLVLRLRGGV

Protein	KM of di-ubiquitin formation, fold increase against wild-type Ube2N	kcat of di-ubiquitin formation, fold reduction against wild-type Ube2N
Ube2N^D119A (protein) GMAGLPRRIIKETQRLLAEPVPGIKAEPDESNARYFHVVIAGPQDSPFEGGTFKLELFLPEEYPMAAPKVRFMTKIYHPNVDKLGRICLDILKDKWSPALQIRTVLLSIQALLSAPNPDAPLANDVAEQWKTNEAQAIETARAWTRLYAMNNI	modestly increased the KM by ˜4 and ˜7-fold, respectively	Mutation to alanine reduced kcat 100-fold
Ube2N^D119N (protein) GMAGLPRRIIKETQRLLAEPVPGIKAEPDESNARYFHVVIAGPQDSPFEGGTFKLELFLPEEYPMAAPKVRFMTKIYHPNVDKLGRICLDILKDKWSPALQIRTVLLSIQALLSAPNPDNPLANDVAEQWKTNEAQAIETARAWTRLYAMNNI	modestly increased the KM by ˜4 and ˜7-fold, respectively	mutation to asparagine 30-fold
Ube2N^N123A (protein) GMAGLPRRIIKETQRLLAEPVPGIKAEPDESNARYFHVVIAGPQDSPFEGGTFKLELFLPEEYPMAAPKVRFMTKIYHPNVDKLGRICLDILKDKWSPALQIRTVLLSIQALLSAPNPDDPLAADVAEQWKTNEAQAIETARAWTRLYAMNNI	–	The ˜3-fold reduction in kcat
Ube2N^D124A (protein) GMAGLPRRIIKETQRLLAEPVPGIKAEPDESNARYFHVVIAGPQDSPFEGGTFKLELFLPEEYPMAAPKVRFMTKIYHPNVDKLGRICLDILKDKWSPALQIRTVLLSIQALLSAPNPDDPLANAVAEQWKTNEAQAIETARAWTRLYAMNNI	–	The ˜3-fold reduction in kcat
